According to patent US20130315910A1 (Xencor, published 2013):

T1: human FcγRIIb receptor protein (R&D Systems) (human, UniProt P31994 46-217)
T1 construct: Bought protein injected over captured antibody in Biacore; also called CD32b
T1 sequence (looked up): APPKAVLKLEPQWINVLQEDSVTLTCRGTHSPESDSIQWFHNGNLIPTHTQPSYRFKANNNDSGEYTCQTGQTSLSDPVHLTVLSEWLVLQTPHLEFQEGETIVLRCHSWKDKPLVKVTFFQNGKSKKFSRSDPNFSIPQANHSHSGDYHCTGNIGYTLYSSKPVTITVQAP

T2: human FcγRIIa (131R), His- and GST-tagged (human, UniProt P12318 34-217)
T2 construct: Expressed in HEK293T cells, purified by nickel chromatography; also called R131 FcγRIIa; not shown: 6xHis and GST tags of the pTT5 vector
T2 sequence (looked up): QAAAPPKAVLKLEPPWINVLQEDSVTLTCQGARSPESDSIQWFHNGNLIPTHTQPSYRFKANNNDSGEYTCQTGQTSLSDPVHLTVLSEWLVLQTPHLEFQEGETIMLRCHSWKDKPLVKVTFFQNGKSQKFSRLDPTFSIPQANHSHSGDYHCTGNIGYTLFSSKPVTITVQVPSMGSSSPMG


What was measured:
[1] = target: T1, human FcγRIIb receptor protein (R&D …); assay: SPR
Protocol: (§1) Variants were screened for receptor affinity using Biacore™ technology, also referred to as Biacore herein, a surface plasmon resonance (SPR) based technology for studying biomolecular interactions in real time. SPR measurements were performed using a Biacore 3000 instrument (Biacore, Piscataway, N.J.). A protein A/G (Pierce Biotechnology) CM5 biosensor chip (Biacore) was generated using a standard primary amine coupling protocol. All measurements were performed using HBS-EP buffer (10 mM HEPES pH 7.4, 0.15 M NaCl, 3 mM EDTA, 0.005% vol/vol surfactant P20, Biacore). Antibodies at 20 nM or 50 nM in HBS-EP buffer were immobilized on the protein A/G surface and FcγRs were injected. After each cycle, the surface was regenerated by injecting glycine buffer (10 mM, pH 1.5). Data were processed by zeroing time and response before the injection of FcγR and by subtracting appropriate nonspecific signals (response of reference channel and injection of running buffer). Kinetic analyses were performed by global fitting of binding data with a 1:1 Langmuir binding model using BIAevaluation software (Biacore).

[2] = target: T2, human FcγRIIa (131R), His- and …; assay: SPR
Protocol: as §1

| Binder | Fold vs WT IgG1 [1] | Kd [1] | Fold vs WT IgG1 [2] | Kd [2] | binding result [1] | binding result [2] |
| --- | --- | --- | --- | --- | --- | --- |
| G237P (antibody, human IgG1, kappa, HuAM4G7 anti-CD19 IgG1 (m1) with this Fc substitution, EU index; copies: 2 + 2) heavy: not shown light: DIVMTQSPATLSLSPGERATLSCRSSKSLQNVNGNTYLYWFQQKPGQSPQLLIYRMSNLNSGVPDRFSGSGSGTEFTLTISSLEPEDFAVYYCMQHLEYPITFGAGTKLEIKRTVAAPSVFIFPPSDEQLKSGTASVVCLLNNFYPREAKVQWKVDNALQSGNSQESVTEQDSKDSTYSLSSTLTLSKADYEKHKVYACEVTHQGLSSPVTKSFNRGEC | 0.0147 fold | 100 µM | 0.00859 fold | 100 µM |  |  |
| G237Q (antibody, human IgG1, kappa, HuAM4G7 anti-CD19 IgG1 (m1) with this Fc substitution, EU index; copies: 2 + 2) heavy: not shown light: DIVMTQSPATLSLSPGERATLSCRSSKSLQNVNGNTYLYWFQQKPGQSPQLLIYRMSNLNSGVPDRFSGSGSGTEFTLTISSLEPEDFAVYYCMQHLEYPITFGAGTKLEIKRTVAAPSVFIFPPSDEQLKSGTASVVCLLNNFYPREAKVQWKVDNALQSGNSQESVTEQDSKDSTYSLSSTLTLSKADYEKHKVYACEVTHQGLSSPVTKSFNRGEC | 0.147 fold | 10 µM | 0.0859 fold | 10 µM |  |  |
| G237V (antibody, human IgG1, kappa, HuAM4G7 anti-CD19 IgG1 (m1) with this Fc substitution, EU index; copies: 2 + 2) heavy: not shown light: DIVMTQSPATLSLSPGERATLSCRSSKSLQNVNGNTYLYWFQQKPGQSPQLLIYRMSNLNSGVPDRFSGSGSGTEFTLTISSLEPEDFAVYYCMQHLEYPITFGAGTKLEIKRTVAAPSVFIFPPSDEQLKSGTASVVCLLNNFYPREAKVQWKVDNALQSGNSQESVTEQDSKDSTYSLSSTLTLSKADYEKHKVYACEVTHQGLSSPVTKSFNRGEC | 0.147 fold | 10 µM | 0.0342 fold | 25.1 µM |  |  |
| G237Y (antibody, human IgG1, kappa, HuAM4G7 anti-CD19 IgG1 (m1) with this Fc substitution, EU index; copies: 2 + 2) heavy: not shown light: DIVMTQSPATLSLSPGERATLSCRSSKSLQNVNGNTYLYWFQQKPGQSPQLLIYRMSNLNSGVPDRFSGSGSGTEFTLTISSLEPEDFAVYYCMQHLEYPITFGAGTKLEIKRTVAAPSVFIFPPSDEQLKSGTASVVCLLNNFYPREAKVQWKVDNALQSGNSQESVTEQDSKDSTYSLSSTLTLSKADYEKHKVYACEVTHQGLSSPVTKSFNRGEC | 0.33 fold | 4.45 µM | 0.902 fold | 0.952 µM |  |  |
| L234F/G236N (antibody, human IgG1, kappa, HuAM4G7 anti-CD19 IgG1 (m1) with these Fc substitutions, EU index; copies: 2 + 2) heavy: not shown light: DIVMTQSPATLSLSPGERATLSCRSSKSLQNVNGNTYLYWFQQKPGQSPQLLIYRMSNLNSGVPDRFSGSGSGTEFTLTISSLEPEDFAVYYCMQHLEYPITFGAGTKLEIKRTVAAPSVFIFPPSDEQLKSGTASVVCLLNNFYPREAKVQWKVDNALQSGNSQESVTEQDSKDSTYSLSSTLTLSKADYEKHKVYACEVTHQGLSSPVTKSFNRGEC |  |  |  |  | no binding | no binding |
| L234I (antibody, human IgG1, kappa, HuAM4G7 anti-CD19 IgG1 (m1) with this Fc substitution, EU index; copies: 2 + 2) heavy: not shown light: DIVMTQSPATLSLSPGERATLSCRSSKSLQNVNGNTYLYWFQQKPGQSPQLLIYRMSNLNSGVPDRFSGSGSGTEFTLTISSLEPEDFAVYYCMQHLEYPITFGAGTKLEIKRTVAAPSVFIFPPSDEQLKSGTASVVCLLNNFYPREAKVQWKVDNALQSGNSQESVTEQDSKDSTYSLSSTLTLSKADYEKHKVYACEVTHQGLSSPVTKSFNRGEC | 0.108 fold | 13.6 µM | 0.0554 fold | 15.5 µM |  |  |
| L234P (antibody, human IgG1, kappa, HuAM4G7 anti-CD19 IgG1 (m1) with this Fc substitution, EU index; copies: 2 + 2) heavy: not shown light: DIVMTQSPATLSLSPGERATLSCRSSKSLQNVNGNTYLYWFQQKPGQSPQLLIYRMSNLNSGVPDRFSGSGSGTEFTLTISSLEPEDFAVYYCMQHLEYPITFGAGTKLEIKRTVAAPSVFIFPPSDEQLKSGTASVVCLLNNFYPREAKVQWKVDNALQSGNSQESVTEQDSKDSTYSLSSTLTLSKADYEKHKVYACEVTHQGLSSPVTKSFNRGEC | 0.0644 fold | 22.8 µM | 0.0141 fold | 60.7 µM |  |  |
| L234S (antibody, human IgG1, kappa, HuAM4G7 anti-CD19 IgG1 (m1) with this Fc substitution, EU index; copies: 2 + 2) heavy: not shown light: DIVMTQSPATLSLSPGERATLSCRSSKSLQNVNGNTYLYWFQQKPGQSPQLLIYRMSNLNSGVPDRFSGSGSGTEFTLTISSLEPEDFAVYYCMQHLEYPITFGAGTKLEIKRTVAAPSVFIFPPSDEQLKSGTASVVCLLNNFYPREAKVQWKVDNALQSGNSQESVTEQDSKDSTYSLSSTLTLSKADYEKHKVYACEVTHQGLSSPVTKSFNRGEC | 0.192 fold | 7.64 µM | 0.693 fold | 1.24 µM |  |  |
| L234V (antibody, human IgG1, kappa, HuAM4G7 anti-CD19 IgG1 (m1) with this Fc substitution, EU index; copies: 2 + 2) heavy: not shown light: DIVMTQSPATLSLSPGERATLSCRSSKSLQNVNGNTYLYWFQQKPGQSPQLLIYRMSNLNSGVPDRFSGSGSGTEFTLTISSLEPEDFAVYYCMQHLEYPITFGAGTKLEIKRTVAAPSVFIFPPSDEQLKSGTASVVCLLNNFYPREAKVQWKVDNALQSGNSQESVTEQDSKDSTYSLSSTLTLSKADYEKHKVYACEVTHQGLSSPVTKSFNRGEC | 0.456 fold | 3.22 µM | 0.134 fold | 6.42 µM |  |  |
| L235P (antibody, human IgG1, kappa, HuAM4G7 anti-CD19 IgG1 (m1) with this Fc substitution, EU index; copies: 2 + 2) heavy: not shown light: DIVMTQSPATLSLSPGERATLSCRSSKSLQNVNGNTYLYWFQQKPGQSPQLLIYRMSNLNSGVPDRFSGSGSGTEFTLTISSLEPEDFAVYYCMQHLEYPITFGAGTKLEIKRTVAAPSVFIFPPSDEQLKSGTASVVCLLNNFYPREAKVQWKVDNALQSGNSQESVTEQDSKDSTYSLSSTLTLSKADYEKHKVYACEVTHQGLSSPVTKSFNRGEC | 0.00585 fold | 251 µM | 0.122 fold | 7.01 µM |  |  |
| L235Q (antibody, human IgG1, kappa, HuAM4G7 anti-CD19 IgG1 (m1) with this Fc substitution, EU index; copies: 2 + 2) heavy: not shown light: DIVMTQSPATLSLSPGERATLSCRSSKSLQNVNGNTYLYWFQQKPGQSPQLLIYRMSNLNSGVPDRFSGSGSGTEFTLTISSLEPEDFAVYYCMQHLEYPITFGAGTKLEIKRTVAAPSVFIFPPSDEQLKSGTASVVCLLNNFYPREAKVQWKVDNALQSGNSQESVTEQDSKDSTYSLSSTLTLSKADYEKHKVYACEVTHQGLSSPVTKSFNRGEC |  |  | 2.04 fold | 0.42 µM | no binding |  |
| L235S (antibody, human IgG1, kappa, HuAM4G7 anti-CD19 IgG1 (m1) with this Fc substitution, EU index; copies: 2 + 2) heavy: not shown light: DIVMTQSPATLSLSPGERATLSCRSSKSLQNVNGNTYLYWFQQKPGQSPQLLIYRMSNLNSGVPDRFSGSGSGTEFTLTISSLEPEDFAVYYCMQHLEYPITFGAGTKLEIKRTVAAPSVFIFPPSDEQLKSGTASVVCLLNNFYPREAKVQWKVDNALQSGNSQESVTEQDSKDSTYSLSSTLTLSKADYEKHKVYACEVTHQGLSSPVTKSFNRGEC | 0.0147 fold | 100 µM | 0.00859 fold | 100 µM |  |  |
| L235T/S267E (antibody, human IgG1, kappa, HuAM4G7 anti-CD19 IgG1 (m1) with these Fc substitutions, EU index; copies: 2 + 2) heavy: not shown light: DIVMTQSPATLSLSPGERATLSCRSSKSLQNVNGNTYLYWFQQKPGQSPQLLIYRMSNLNSGVPDRFSGSGSGTEFTLTISSLEPEDFAVYYCMQHLEYPITFGAGTKLEIKRTVAAPSVFIFPPSDEQLKSGTASVVCLLNNFYPREAKVQWKVDNALQSGNSQESVTEQDSKDSTYSLSSTLTLSKADYEKHKVYACEVTHQGLSSPVTKSFNRGEC | 2.37 fold | 0.619 µM | 3.06 fold | 0.281 µM |  |  |
